Test results taken from the nanobody polyreactivity screen of Harvey et al. (2022).

Test: yeast display, Sf9 membrane polyspecificity reagent, FACS + sequencing; frameworks hold sequencing errors
How it was run: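 Using colony PCR, genes from sorted yeast display clones were amplified, then sequenced on MiSeq at 2 × 250 and filtered by CDR length. The clones had been stained with 10% biotinylated, detergent-solubilized Sf9 membrane reagent for 1 hour at 4 °C and sorted by FACS into low and high (top ~1%) gates on anti-HA and streptavidin fluorescence. Polyreactivity labels come from the gate of origin.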

Sequence | polyreactivity (PSR sort gate)
QVQLVESGGGLVQAGGSLRLSCAASRLTFVGYAMGWYRQAPGKETALVAALTSSGGGTYYADSVKGRFTISRDNAKNPVYLQMNSLKPQDTALYYCAKVTRGSQYDYWGQGTEVTVSS | low polyreactivity
QVQLVESGGGLVQAGGSLRLSCAASRRIFYAYAMGWYRQAPGKEIELLATITGIGGSTYADSVKGRFTISRDNAKNTVNLQMNSLKPEDTAVYYCNAERGVYWGRYPYKYDYLGQGTQVTVSS | low polyreactivity
QVQLVESGGGLVQAGGSLRLSCAASRRIIYRSAMGWYRQAPGKERELLAAITSGDSTYYADSVKVRFTISRDNSKNTVFLQMNSLKPEDTAVYYCAADYLSRSPAYEHYYWGQGTQVTVSS | high polyreactivity
QVQLVESGGGLVQAGGSLRLSCAASRRTFANYAMGWYRQAPGKERELVAAISRSGGSTYYADSVKGRFTISRDNAKNSVYLQMKSLKPEDTAVYYCAARYVRQYYRAEDYWGQGTHVTVSS | high polyreactivity
QVQLVESGGGLVQAGGSLRLSCAASRRTFSYNTMGWYRQAPGTERELVARITWGGGSTNYADSVKGRFTISRDNAKNTVYLQMNSLKPEDTAVYYCAAGPSVPYGPQKVDYWGQGTQVTVSS | low polyreactivity
QVQLVESGGGLVQAGGSLRLSCAASRSIFGYNAMGWYRPAPGKEREFVAAIRWSSGSTYYADSVKGRFTISRDNAKNTVYLQMNSLKPEDTAVYYCATRQTYLYLGQGTQVTVSS | high polyreactivity
QVQLVESGGGLVQAGGSLRLSCAASRSIFRIYAMGWYRQAPGKERELVAGISKSGGSTYYADSVKGRFTISRDNAKNTVYLQMNSLKPEDTAVYYCNAGYNWSGLAVGRYGYDSWGQGTQVTVSS | low polyreactivity
QVQLVESGGGLVQAGGSLRLSCAASRSTFFHYAMGWNRQAPGKERELVAAISSDGITNYADSVKGRFTISRDNAKNTVYLQMNILIPEDTAVYYCNAETVSTVGLGYWGQGTQVTVSS | low polyreactivity
QVQLVESGGGLVQAGGSLRLSCAASRSTFNYYTMGWYRQAPGKERELVAAISRGGSTYYADSVKGRFTISRDNAKNTVYLQMNSLKPEDTAVYYCAATVYPRYFRKYDYWGQGTQVTVSS | high polyreactivity
QVQLVESGGGLVQAGGSLRLSCAASRSTFPKYAMGWNRKAPGKERELVASISVTTGSPYYADSVKGRFTISLDNAKNTVYLQKNSLKPEDTAVYYCAKRTYSRKFRGAYNYWGQGTQVSVSS | high polyreactivity
QVQLVESGGGLVQAGGSLRLSCAASRSTFRYYTMGWYRQSPGKERELVARISRSGGSTYYADSVKGRFTISRDNAKNTVYLQMNSLKPEDTSVYYCAALYYVKPGQRYDYWGQGTQVTVSS | high polyreactivity
QVQLVESGGGLVQAGGSLRLSCAASRSTFSDNAMGWYRQAPGKERELVAAISRSGGSTYYADSVKGRFTISRDTAKNTVYLQMNSLKPEDTAVYYCATKRVLTGYDSWGQGTQVTVSS | high polyreactivity
QVQLVESGGGLVQAGGSLRLSCAASRSTLSTYAMGWYRQAPGTERELVAAITWSDDSTYYADSVKGRFTISRDNAKNTVYLQMNSLKPEDTAVYYCAAEYISWFFGYDYWGQGTQVTVSS | high polyreactivity
QVQLVESGGGLVQAGGSLRLSCAASRYIFSRNAMGWYRQAPGKERELVAAISLRGGSTYFADSVKGRFTISRDNAKNTVYLQMNSLKPEDTAVYYCAAPLFSGYDYWGQGTQVTVSS | low polyreactivity
QVQLVESGGGLVQAGGSLRLSCAASVFISSWYDMGWYRQAPGKERQLVAAIRSSGGNTYYADSVKGRFTISRDNAKNTVYLQMNSLKPEDTAVYYCAKDWKSEDGGYYWGQGTQVTVSS | high polyreactivity
QVQLVESGGGLVQAGGSLRLSCAASVFTFSPNAMGWYRQAPGKERELVAAISKRGASTYYADSVKGRFTISRDNAKNTVYLQMNSLKPEDTAVYYCNVGASARKPYDYWGQGTQVTVSS | high polyreactivity
QVQLVESGGGLVQAGGSLRLSCAASVGTFRRYAKGWYREAPGKERELVAAISWTGGSTYYADSVKGRFTISRDNAKNNVYLQMNSLKPEDTAVYYCAAVGSSSSKGGYWGQGTQVTVSS | high polyreactivity
QVQLVESGGGLVQAGGSLRLSCAASVITFDVYAMGWYRPAPGKERELVAAISSVGGTYYADSVKGRFTISRDNAKNTVYLQMISLKPEDTAVYYCNTDGYVGSIRSGLYIYDYWGQGTQVTVSS | low polyreactivity
QVQLVESGGGLVQAGGSLRLSCAASVITFNYNARGWYRQAPGKERELVARITWSGTRTYYADSVKGRFTMSRDNANNTVYLQMNSLKPEDTGVYYCNAGPYARYYWGQGTQVTVSS | high polyreactivity
QVQLVESGGGLVQAGGSLRLSCAASVLIFEAYAMGWYRQAPAKERELVATINKSGGSTYYADSVKGRFTISRDNAKNTVYLQMNSLKPEDTAVYFCAAFFLLPSPWPSYWCWNGDYWGQRTQVTVSS | low polyreactivity
QVQLVESGGGLVQAGGSLRLSCAASVLIFYDNIGWYRQAPGKERELVAAIDSGGNTYADSVKGRFTISRDNAKNTVYLQMNSLKPEDTAVYYCAVDGGEFSSYGYWGQGTQVTVSS | low polyreactivity
QVQLVESGGGLVQAGGSLRLSCAASVNTFWYYTMGWYRQAPGKERELVAAITGGGRTYYADSVKGRFTISRDNAKNSVYLQMNSLKPEDTAVYYCAKPWGSDFGSWGQGTQVTVSS | low polyreactivity

Sequence | polyreactivity (PSR sort gate)
QVQLVESGGGLVQAGGSLRLSCAASVRIFEVYAMGWYRQAPGKERELVAAISSGGGSTYYADSVKGRFTISRDNAKNTVFLQMISLKPEDTAVYYCAADEVTKKNSFPRIMDYWGQGTQVTVSS | high polyreactivity
QVQLVESGGGLVQAGGSLRLSCAASVRIFRINTMGWYRQAPGKERELVAAIRTSGSSTYADSVKGRFTISRDNAKNTVYLQMNSLKPEDTAVYYCNTKYPGRGYYWGQGTQVTVSS | high polyreactivity
QVQLVESGGGLVQAGGSLRLSCAASVRTFYYYAMGWYRQAPGKERELVARISRGGSTNYADSVKGRFTISRDNAKNTVYLLMNSLKTEDTAVYYCAKSISYTGRYWGYDYWGQGTQVTVSS | high polyreactivity
QVQLVESGGGLVQAGGSLRLSCAASVSIFKGYAMGWYRQAPGKERELVAAITGSDGSTYADSVKGRFTISRDNAKNTVYLQMNSLKPEDTAVYYCNTGGWTRYRPPGYEWNWYDYWGQGTQVTVSS | low polyreactivity
QVQLVESGGGLVQAGGSLRLSCAASVSIIPHNTMGWYRQAPGKEMELVAAISRSGGSTYYADSVKGRFTISRDNGKKTVYLQMNSLKPEDTAVYYCSSDSYDVGHQVVSEERLYDYWGQGTQVTVSS | low polyreactivity
QVQLVESGGGLVQAGGSLRLSCAASVSTFEANAMGWYRQAPGKERELVAVITWTGGSTYYADSVKGRFTISRDYAKNNVYLQMNSLKPEDTAVYYCAAKFHRFAWYSHYDYWGQGTQVTVSS | low polyreactivity
QVQLVESGGGLVQAGGSLRLSCAASVSTFTFNDMGWSRQAPGKERELVAAITSGGSTTYADSVKGRFTISRDNAKNTVYLQMNSLKPEDTAVYYCAADYVYFYFYGYASWGQGTQVTVSS | low polyreactivity
QVQLVESGGGLVQAGGSLRLSCAASVSTIGTYAMGWYRQAPGKERELVAAISTGGSTYYADSVKGRFTISRANAKNTVHLQMNSLKPEDTAVYYCAALADYVRRASDYWGQGTQVTVSS | low polyreactivity
QVQLVESGGGLVQAGGSLRLSCAASVYIFVRNALGWYRQAPGKERELVAAISGSGGSTYYADSVKGRFTISRDNAKNTVSLQMNSLIPEDTAVDYCAADYATVTWRGIAYDYWGQGTQVTVSS | low polyreactivity
QVQLVESGGGLVQAGGSLRLSCAASVYTFPSYVMGWYRQAPGKERELVAAISSGSRTYYADSVKGRFTISRDNAKNTVYLQMNSLKPEDTAVYYCNARGFPGKFGYWGPGTQVTVSS | high polyreactivity
QVQLVESGGGLVQAGGSLRLSCAASVYTFYKYAMGWYRQAPGKERELVAAISSSGGSTYYADSVKGRFTISRDNAKNTVYLQMNSLKPEDTAVYYCAAYVYSNDYDYWGQGTQVTVSS | high polyreactivity
QVQLVESGGGLVQAGGSLRLSCAATGFFFGPYVMGWYRQATGKERELVAVITWTGGSTSYADSVKGRFTISRDNAKNTVYLQMNSLKREDTAVYYCAARTHQYRSRSYYYWGQGTQVTVSS | high polyreactivity
QVQLVESGGGLVQAGGSLRLSCAATGFIFTDNVMGWYRQAPGKERELVAAISRRGGSTYYADSVKGRFTISRDNAKNTVYLQMNSLKPEDTAVYYCNVARQSYLLDYWGQGSQVTVSS | high polyreactivity
QVQLVESGGGLVQAGGSLRLSCAATGFTFCANAMGWYRQAPGKERELVAAISWTGVNTYYADSVKGRFTISRDNAKNTVYLQMNSLKPEDTAVYSCAAEQWSTGYYYWGQGTQVTVSS | high polyreactivity
QVQLVESGGGLVQAGGSLRLSCAATGFTFIHYGMGWYRQAPGKERELVAAITWRGDRTYADSVKGRFTISRDNANNTVYLQMNSLKPEDTAVYYCAAVSANQDFDYWGQGTQVTVSS | high polyreactivity
QVQLVESGGGLVQAGGSLRLSCAATGFTFTGNAMGWYRQAPGKQRELVAAINTGTGGSTYYADSVKGRFTISRDNAKNTVYLQMNSLKPVDTAVYYPIGVGGDYDYWGQGTQVTVSS | low polyreactivity
QVQLVESGGGLVQAGGSLRLSCAATGFTFTLYAMGWYRQAPGKERALVAAITRLGTSTYYADSVKGRFTISRDNAKNTVYLQMNNLKPEDTAVYYCAARGGGGQRYDYWGHGTQVTVSS | high polyreactivity
QVQLVESGGGLVQAGGSLRLSCAATGFTFYGYAMGWYRQAPGKERELVAAISRRSSSTYYADSVKGRFTISRDNAKNTVYLQMNSLKPEDTAVCYCNTVFQRSGYAAGVDYWGQGTQVTVSS | high polyreactivity
QVQLVESGGGLVQAGGSLRLSCAATGFTSYLYTMGGYRQAAGKERELVAAISNSGGNTYYADSVKGRFTISRDNANNTVYLQMNSLKPEDTAVYYCAARLFAAKYRYGYWGQGTQVTVSS | high polyreactivity
QVQLVESGGGLVQAGGSLRLSCAATGIISQYYAMGWYRQQPGKESELDAAISRSGGSTFYADSVKGRFTISRDNAQNTVYLQMNSLKPEDTAVYYCNAESRFRPYTSRYDYWGQGTQVTVSS | high polyreactivity
QVQLVESGGGLVQAGGSLRLSCAATGIKFDGYAMGWYRQEPRKERELVAGITIGDITYYADSVKGRFTISRDNAKNTVYLQMNSLKPEDTAVYYCADDCYYYQTAYDYWGQGTQVTVSS | low polyreactivity
